Experimental data reported in publication PMC3048825.

Legend:
[1] = molecular target: trimerization domain of human type XV collagen, XV(TD) (human); experiment: SEC
[2] = molecular target: trimerization domain (TD) of human collagen XVIII, XVIII(TD) (human) (UniProt P39060); experiment: AUC
[3] = molecular target: trimerization domain (TD) of human collagen XVIII, XVIII(TD) (human) (UniProt P39060); experiment: cross-linking

stoichiometry N [1] | stoichiometry N [2] | stoichiometry N [3] | Substance
3 | – | – | trimerization domain of human type XV collagen, XV(TD) (domain or fragment)
– | 2.98 | 3 | trimerization domain (TD) of human collagen XVIII, XVIII(TD) (from UniProt P39060 1442-1496) (domain or fragment)
